This data set addresses c-kit receptor (CD117), expressed on BJAB c-kit cells (Mus musculus) (UniProt P05532). The experiment in a line: flow cytometry (cell titration, 0-100 nM). Conditions: apparent Kd on BJAB c-kit cells, background subtracted; Aptamer folded in SELEX buffer (DPBS with Ca/Mg, 5 mM MgCl2, 0.45% glucose, tRNA), 95 C then …; binding in DPBS with Ca/Mg + 0.1% BSA, 1 h on ice; FAM. In general terms: A flow cytometer gives signals particle by particle.

Among the data in PMC3742456 are Kd values, retold here.

UniProt P05532, sequence (P05532 25-979): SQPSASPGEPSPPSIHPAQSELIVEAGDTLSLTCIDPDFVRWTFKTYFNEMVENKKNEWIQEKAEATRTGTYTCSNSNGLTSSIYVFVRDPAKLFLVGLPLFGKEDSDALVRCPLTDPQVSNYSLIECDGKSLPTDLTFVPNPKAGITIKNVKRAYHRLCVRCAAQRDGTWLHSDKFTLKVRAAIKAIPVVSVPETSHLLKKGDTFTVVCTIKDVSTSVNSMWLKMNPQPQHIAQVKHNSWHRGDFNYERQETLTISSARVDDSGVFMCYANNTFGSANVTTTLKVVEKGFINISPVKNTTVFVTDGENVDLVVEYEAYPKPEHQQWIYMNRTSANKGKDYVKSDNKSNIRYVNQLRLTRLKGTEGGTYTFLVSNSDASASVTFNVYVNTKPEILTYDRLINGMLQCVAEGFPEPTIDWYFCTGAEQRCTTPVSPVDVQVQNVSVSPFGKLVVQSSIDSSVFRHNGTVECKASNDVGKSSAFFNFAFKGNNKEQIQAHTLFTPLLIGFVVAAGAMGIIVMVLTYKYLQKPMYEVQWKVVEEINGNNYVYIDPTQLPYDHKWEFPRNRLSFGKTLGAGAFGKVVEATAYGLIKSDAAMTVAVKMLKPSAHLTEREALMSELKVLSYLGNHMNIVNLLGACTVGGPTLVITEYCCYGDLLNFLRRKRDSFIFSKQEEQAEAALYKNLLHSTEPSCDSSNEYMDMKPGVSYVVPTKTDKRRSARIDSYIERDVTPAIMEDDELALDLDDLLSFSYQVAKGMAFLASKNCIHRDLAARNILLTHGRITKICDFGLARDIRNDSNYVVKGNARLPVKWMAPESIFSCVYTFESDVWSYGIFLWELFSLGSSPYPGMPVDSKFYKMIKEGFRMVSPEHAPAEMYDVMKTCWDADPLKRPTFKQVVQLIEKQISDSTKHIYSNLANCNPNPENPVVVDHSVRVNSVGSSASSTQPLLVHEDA

For “AGCAGCACAGAGGTCAGATGGCTCAACGCGGGACGGCTCTCCCATTGACCCTATGCGTGCTACCGTGAA [Kit-129]”, the Kd is 12.2 nM.
